Experimental data from publication PMC10547724, “Structural insights into the conformational changes of BTR1/SLC4A11 in complex with PIP2” (Nature Communications, 2023).

Target: the molecule itself
Assay: cryo-EM structure; single-particle cryo-EM of protein purified in GDN micelles (150 mM NaCl, 20 mM HEPES pH 7.4); wild type apo or with NH4Cl (outward-facing), R125H mutant (inward-facing; pH not named for it)

| Protein | stoichiometry N |
| --- | --- |
| BTR1 (SLC4A11), full-length human, wild type (natural protein, UniProt Q8NBS3-1 1-891, looked up, human BTR1 (SLC4A11), full length, residues 1-891 (NTD 1-307, TMD 336-891), amplified from human HEK293 cDNA; GFP and His tag removed with TEV protease before gel filtration; Residues 1-103, 308-335 and 888-891 were not built in the model; also called NaBC1; bicarbonate transporter-related protein-1; source: HEK293F cells, baculovirus (BacMam) infection, purified (Ni-NTA, TEV cleavage, gel …)) MSQVGGRGDRCTQEVQGLVHGAGDLSASLAENSPTMSQNGYFEDSSYYKCDTDDTFEAREEILGDEAFDTANSSIVSGESIRFFVNVNLEMQATNTENEATSGGCVLLHTSRKYLKLKNFKEEIRAHRDLDGFLAQASIVLNETATSLDNVLRTMLRRFARDPDNNEPNCNLDLLMAMLFTDAGAPMRGKVHLLSDTIQGVTATVTGVRYQQSWLCIICTMKALQKRHVCISRLVRPQNWGENSCEVRFVILVLAPPKMKSTKTAMEVARTFATMFSDIAFRQKLLETRTEEEFKEALVHQRQLLTMVSHGPVAPRTKERSTVSLPAHRHPEPPKCKDFVPFGKGIREDIARRFPLYPLDFTDGIIGKNKAVGKYITTTLFLYFACLLPTIAFGSLNDENTDGAIDVQKTIAGQSIGGLLYALFSGQPLVILLTTAPLALYIQVIRVICDDYDLDFNSFYAWTGLWNSFFLALYAFFNLSLVMSLFKRSTEEIIALFISITFVLDAVKGTVKIFWKYYYGHYLDDYHTKRTSSLVSLSGLGASLNASLHTALNASFLASPTELPSATHSGQATAVLSLLIMLGTLWLGYTLYQFKKSPYLHPCVREILSDCALPIAVLAFSLISSHGFREIEMSKFRYNPSESPFAMAQIQSLSLRAVSGAMGLGFLLSMLFFIEQNLVAALVNAPENRLVKGTAYHWDLLLLAIINTGLSLFGLPWIHAAYPHSPLHVRALALVEERVENGHIYDTIVNVKETRLTSLGASVLVGLSLLLLPVPLQWIPKPVLYGLFLYIALTSLDGNQLVQRVALLLKEQTAYPPTHYIRRVPQRKIHYFTGLQVLQLLLLCAFGMSSLPYMKMIFPLIMIAMIPIRYILLPRIIEAKYLDVMDAEHRP | 2 |
| BTR1 (SLC4A11) R125H, full-length human, pathogenic mutant (natural protein, UniProt Q8NBS3-1 1-891, looked up, human BTR1 (SLC4A11), full length, with the disease-associated mutation R125H made in the PBM-SLC4A11 plasmid; GFP and His tag removed with TEV protease before gel filtration; also called BTR1-R125H; BTR1_(IF/R125H); source: HEK293F cells, baculovirus (BacMam) infection, purified (Ni-NTA, TEV cleavage, gel filtration) in GDN micelles; not shown: GFP, C-terminal, cleaved; His8, C-terminal, cleaved) MSQVGGRGDRCTQEVQGLVHGAGDLSASLAENSPTMSQNGYFEDSSYYKCDTDDTFEAREEILGDEAFDTANSSIVSGESIRFFVNVNLEMQATNTENEATSGGCVLLHTSRKYLKLKNFKEEIHAHRDLDGFLAQASIVLNETATSLDNVLRTMLRRFARDPDNNEPNCNLDLLMAMLFTDAGAPMRGKVHLLSDTIQGVTATVTGVRYQQSWLCIICTMKALQKRHVCISRLVRPQNWGENSCEVRFVILVLAPPKMKSTKTAMEVARTFATMFSDIAFRQKLLETRTEEEFKEALVHQRQLLTMVSHGPVAPRTKERSTVSLPAHRHPEPPKCKDFVPFGKGIREDIARRFPLYPLDFTDGIIGKNKAVGKYITTTLFLYFACLLPTIAFGSLNDENTDGAIDVQKTIAGQSIGGLLYALFSGQPLVILLTTAPLALYIQVIRVICDDYDLDFNSFYAWTGLWNSFFLALYAFFNLSLVMSLFKRSTEEIIALFISITFVLDAVKGTVKIFWKYYYGHYLDDYHTKRTSSLVSLSGLGASLNASLHTALNASFLASPTELPSATHSGQATAVLSLLIMLGTLWLGYTLYQFKKSPYLHPCVREILSDCALPIAVLAFSLISSHGFREIEMSKFRYNPSESPFAMAQIQSLSLRAVSGAMGLGFLLSMLFFIEQNLVAALVNAPENRLVKGTAYHWDLLLLAIINTGLSLFGLPWIHAAYPHSPLHVRALALVEERVENGHIYDTIVNVKETRLTSLGASVLVGLSLLLLPVPLQWIPKPVLYGLFLYIALTSLDGNQLVQRVALLLKEQTAYPPTHYIRRVPQRKIHYFTGLQVLQLLLLCAFGMSSLPYMKMIFPLIMIAMIPIRYILLPRIIEAKYLDVMDAEHRP | 2 |
